In the supplement of paper PMC9876800:

Test system: peptide library, one residue held at a place counted from the S/T acceptor
Experiment: relative phosphorylation of the sub-library (ratio to the mean residue at this position); higher = residue favoured
Details: human
How it was run: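 Relative sub-library phosphorylation is the ratio of each sub-library's signal to the mean residue at that position. The signal came from phosphorimaging of spots on streptavidin membranes, quantified by densitometry, after purified recombinant kinases reacted with biotinylated degenerate peptide sub-libraries in 384-well plates. Reactions held 50 μM peptide and 50 μM ATP spiked with γ-32P-ATP for 90 min under kinase-specific conditions.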

Chain of CDK3, construct: Full length (Q00526 whole entry, looked up): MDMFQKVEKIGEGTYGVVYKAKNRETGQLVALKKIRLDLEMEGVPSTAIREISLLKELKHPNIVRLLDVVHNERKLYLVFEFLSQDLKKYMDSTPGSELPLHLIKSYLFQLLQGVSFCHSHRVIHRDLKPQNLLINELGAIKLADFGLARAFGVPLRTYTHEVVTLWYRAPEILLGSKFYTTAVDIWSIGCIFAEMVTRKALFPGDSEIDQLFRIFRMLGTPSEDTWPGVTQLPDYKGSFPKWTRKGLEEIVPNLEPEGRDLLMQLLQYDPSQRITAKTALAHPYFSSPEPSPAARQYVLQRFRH
Chain of CDK13, construct: aa694-1039 (Q14004 694-1039, looked up): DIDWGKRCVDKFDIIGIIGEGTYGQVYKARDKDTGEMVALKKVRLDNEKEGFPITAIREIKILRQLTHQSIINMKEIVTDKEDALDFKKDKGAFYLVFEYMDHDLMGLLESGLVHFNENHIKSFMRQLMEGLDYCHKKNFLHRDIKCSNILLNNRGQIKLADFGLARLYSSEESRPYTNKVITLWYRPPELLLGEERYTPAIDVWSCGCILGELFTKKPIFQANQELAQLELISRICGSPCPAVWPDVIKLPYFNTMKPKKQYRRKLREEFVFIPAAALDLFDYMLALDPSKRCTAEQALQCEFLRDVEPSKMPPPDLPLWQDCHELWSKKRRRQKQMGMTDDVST

CDK3, construct: Full length (from UniProt Q00526)
relative phosphorylation
Details | at +1 | at +2 | at +3 | at +4 | at -1 | at -2 | at -3 | at -4 | at -5
A fixed | 0.28 | 1.2 | 0.418 | 1.14 | 1.12 | 1.17 | 1.14 | 1.23 | 1.11
D fixed | 0.17 | 0.658 | 0.277 | 0.882 | 0.844 | 0.837 | 0.997 | 1.07 | 1.31
E fixed | 0.172 | 0.626 | 0.25 | 0.783 | 0.718 | 0.938 | 0.839 | 1.29 | 1.06
F fixed | 0.14 | 0.857 | 0.261 | 0.778 | 0.703 | 0.855 | 0.746 | 0.8 | 0.944
G fixed | 0.912 | 0.851 | 0.612 | 1.43 | 1.72 | 1.28 | 1.83 | 1.49 | 1.37
H fixed | 0.177 | 1.06 | 0.699 | 1.06 | 0.778 | 0.981 | 0.984 | 0.966 | 0.993
I fixed | 0.156 | 0.775 | 0.261 | 0.697 | 0.343 | 0.691 | 0.618 | 0.589 | 0.656
K fixed | 0.214 | 2 | 9.66 | 1.99 | 1.58 | 0.753 | 0.978 | 1.1 | 1.06
L fixed | 0.156 | 0.891 | 0.266 | 0.736 | 0.741 | 0.957 | 0.777 | 0.709 | 0.629
M fixed | 0.167 | 0.98 | 0.284 | 0.962 | 0.969 | 0.889 | 0.766 | 0.957 | 0.695
N fixed | 0.193 | 1.05 | 0.405 | 0.988 | 1.1 | 0.909 | 1.06 | 0.938 | 0.887
P fixed | 13.3 | 0.682 | 0.644 | 1.04 | 1.87 | 2.78 | 2.04 | 1.54 | 1.51
Q fixed | 0.212 | 1.29 | 0.401 | 0.933 | 1.17 | 0.825 | 0.943 | 0.836 | 0.915
R fixed | 0.2 | 1.9 | 1.69 | 1.1 | 1.48 | 0.835 | 1 | 1.01 | 1.12
V fixed | 0.216 | 0.851 | 0.302 | 0.682 | 0.453 | 0.688 | 0.654 | 0.602 | 0.832
W fixed | 0.155 | 0.653 | 0.277 | 1.05 | 0.613 | 0.867 | 0.807 | 0.969 | 1.01
Y fixed | 0.142 | 0.664 | 0.288 | 0.741 | 0.793 | 0.744 | 0.814 | 0.891 | 0.895
pThr fixed | 0.523 | 0.933 | 0.86 | 0.685 | 0.434 | 0.731 | 0.886 | 1 | 1.24
pTyr fixed | 0.633 | 0.538 | 0.927 | 0.718 | 0.48 | 0.698 | 0.853 | 0.982 | 0.947

CDK13, construct: aa694-1039 (from UniProt Q14004)
relative phosphorylation
Details | at +1 | at +2 | at +3 | at +4 | at -1 | at -2 | at -3 | at -4 | at -5
A fixed | 0.344 | 0.946 | 0.818 | 0.867 | 1.13 | 1.18 | 1.03 | 1.07 | 1.13
D fixed | 0.22 | 0.631 | 0.449 | 1.07 | 0.485 | 0.477 | 0.742 | 0.927 | 0.951
E fixed | 0.222 | 0.569 | 0.42 | 0.973 | 0.492 | 0.515 | 0.76 | 0.983 | 0.817
F fixed | 0.319 | 1.03 | 0.579 | 0.816 | 0.876 | 0.712 | 0.85 | 1.17 | 1.23
G fixed | 0.908 | 1.27 | 0.797 | 1.33 | 1.45 | 1.77 | 2.11 | 1.16 | 0.982
H fixed | 0.301 | 1.17 | 1.71 | 1.44 | 0.893 | 0.831 | 0.889 | 1.02 | 1.1
I fixed | 0.293 | 0.835 | 0.822 | 0.746 | 0.382 | 0.933 | 0.995 | 0.868 | 0.933
K fixed | 0.307 | 1.31 | 0.993 | 0.893 | 1.12 | 0.542 | 0.581 | 0.846 | 0.837
L fixed | 0.348 | 0.845 | 0.558 | 0.743 | 0.845 | 1.03 | 0.922 | 0.953 | 0.923
M fixed | 0.336 | 1.11 | 0.506 | 0.824 | 1.64 | 1.31 | 0.965 | 1.01 | 0.855
N fixed | 0.305 | 1.02 | 0.739 | 1.01 | 0.968 | 0.685 | 0.696 | 0.889 | 0.784
P fixed | 11.6 | 0.82 | 1.41 | 0.98 | 1.02 | 1.71 | 1.44 | 1.15 | 1.17
Q fixed | 0.287 | 0.8 | 0.764 | 0.903 | 1.18 | 0.736 | 0.672 | 0.753 | 0.933
R fixed | 0.315 | 1.7 | 4.1 | 0.956 | 1.68 | 1.16 | 1.2 | 0.861 | 0.898
V fixed | 0.315 | 0.812 | 0.717 | 0.779 | 0.511 | 0.942 | 0.877 | 0.825 | 0.929
W fixed | 0.306 | 0.937 | 0.82 | 1.59 | 1.23 | 1.43 | 1.07 | 1.4 | 1.24
Y fixed | 0.306 | 1.2 | 0.801 | 1.09 | 1.09 | 1.03 | 1.2 | 1.11 | 1.27
pThr fixed | 0.386 | 0.581 | 0.553 | 1.13 | 0.349 | 0.479 | 0.922 | 0.831 | 1.02
pTyr fixed | 0.405 | 0.576 | 0.702 | 1.27 | 1.16 | 0.698 | 0.88 | 0.961 | 0.865
